PMC3173040

Key:
[1] = target: actin (UniProt P68135); assay: SAXS
[2] = target: VopL fragment 200-484 (1W-VCD) (Vibrio parahaemolyticus) (UniProt Q87GE5); assay: SEC-MALS
[3] = target: actin (UniProt P68135); assay: SEC-MALS
[4] = target: 3W-VCD-AviTag bound to quantum dots (Vibrio parahaemolyticus) (UniProt Q87GE5); assay: TIRF microscopy
[5] = target: actin (UniProt P68135); assay: ITC

VopL fragment 200-484 (1W-VCD) (from UniProt Q87GE5 200-484) (domain or fragment)
stoichiometry N (actin molecules per 1W-VCD dimer) [1]: 2 | stoichiometry N [2]: 2 | stoichiometry N (actin molecules per 1W-VCD dimer) [3]: 2

actin (from UniProt P68135 1-377) (natural protein)
percent of filaments associated with Qdots through the pointed end [4]: 10.9%

third W domain of VopL (domain or fragment)
Kd [5]: 410 nM
